Assays:
[1] = biological target: human CD24 (human) (UniProt P25063); assay: FACS, CHOK1-hCD24 cells
[2] = biological target: human CD24 (human) (UniProt P25063); assay: FACS, MCF7 cells
[3] = biological target: human CD24 (human) (UniProt P25063); assay: FACS, H1975 cells
[4] = biological target: human CD24 (human) (UniProt P25063); assay: FACS, MDA-MB-468 cells
[5] = biological target: human CD24 (human) (UniProt P25063); assay: FACS, A549 cells
[6] = biological target: human CD24 (human) (UniProt P25063); assay: FACS, SU-DHL6 cells
[7] = biological target: human CD24 (human) (UniProt P25063); assay: FACS, HT-29 cells
[8] = biological target: human CD24 (human) (UniProt P25063); assay: FACS, 5637 cells
[9] = biological target: human CD24 (human) (UniProt P25063); assay: FACS, 293F-hCD24 cells
[10] = biological target: human CD24 (human) (UniProt P25063); assay: FACS, OCI-LY1 cells
[11] = biological target: human CD24 (human) (UniProt P25063); assay: FACS, Nalm1 cells
[12] = biological target: human CD24 (human) (UniProt P25063); assay: FACS, OCI-LY7 cells

Sequence of human CD24 (human) (P25063 27-59): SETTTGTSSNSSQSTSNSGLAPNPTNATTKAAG

FACS MFI [1]: 177 | Max MFI [1]: 189 | FACS MFI [2]: 187 | Max MFI [2]: 187 | FACS MFI [3]: 203 | Max MFI [3]: 203 | FACS MFI [4]: 190 | Max MFI [4]: 190 | FACS MFI [5]: 167 | Max MFI [5]: 167 | FACS MFI [6]: 188 | FACS MFI [7]: 194 | Max MFI [7]: 194 | FACS MFI [8]: 185 | Max MFI [8]: 185 | FACS MFI [9]: 185 | Max MFI [9]: 185 | FACS MFI [10]: 197 | FACS MFI [11]: 175 | Max MFI [11]: 175 | FACS MFI [12]: 186
Substance: mIgG ctrl (antibody)

— US20240052052A1
